Experimental data from paper doi:10.1101/705459 (bioRxiv, 2019).

T1: CMG2-GST-biotin (human CMG2 vWA domain 40-217, [change], [change], GST fusion, biotin-labelled) (human, UniProt P58335 40-217)
T1 chain: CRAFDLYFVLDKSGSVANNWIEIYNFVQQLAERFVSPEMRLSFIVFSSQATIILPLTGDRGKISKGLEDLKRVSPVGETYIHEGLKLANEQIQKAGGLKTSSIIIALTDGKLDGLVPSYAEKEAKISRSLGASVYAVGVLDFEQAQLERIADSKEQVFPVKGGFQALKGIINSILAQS

T2: CMG2-488 (human CMG2 vWA domain 40-217, [change], [change], AlexaFluor 488) (human, UniProt P58335 40-217)
T2 chain: T1 chain

B1: CMG2-biotin (human CMG2 vWA domain 40-217, [change], [change], biotin-labelled) (domain or fragment)
chain: T1 chain
B2: Peptide U12 (canstatin-derived 15-mer) (peptide)
peptide: VSIGYLLVKHSQTDQ
B3: Peptide S16 (canstatin-derived 15-mer) (peptide)
peptide: PAIAIAVHSQDVSIP

Assays:
[1] = target: B3; assay: peptide or protein array
[2] = target: B2; assay: peptide or protein array
[3] = target: T1, CMG2-GST-biotin (human CMG2 vWA domain …); assay: BLI
[4] = target: T2, CMG2-488 (human CMG2 vWA domain 40-217, …); assay: FRET or BRET

B1
binding result [1]: binds | binding result [2]: binds

B2
Kd [3]: 80000 nM | IC50 [4]: 35000 nM

B3
Kd [3]: 400 nM | koff [3]: ~0.0001 s⁻¹ | kon [3]: ~200 M⁻¹ s⁻¹ | IC50 [4]: 2700 nM | Kd [4]: 100 ± 55 nM
